± gives the uncertainty stated by the source.
Assay: protein stability index of a GFP-peptide fusion (yeast GPS) (PSI 1-4); higher = more stable; sorted into four equal gates, so the index is relative within each strain
Settings: san1∆
Outline: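 Tiled 17-residue yeast protein peptides were fused downstream of GFP in a plasmid that also expresses Cherry, and the pooled library was carried in yeast. Mid-log cultures in leucine-free medium were sorted into four equal gates by GFP/Cherry fluorescence ratio, and plasmids from each gate were PCR-amplified and Illumina-sequenced, with reads assigned to strains by barcodes. The protein stability index for each peptide was each gate's read frequency times its gate number, summed.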

| Sequence | protein stability index |
| --- | --- |
| LISNLLFSKNRNEVLES [YCS4] | 2.97 ± 0.052 |
| LITKANKVSYYGNPTSK [RTT102] | 1.97 ± 0.089 |

Same assay, conditions: ubr1∆

| Sequence | protein stability index |
| --- | --- |
| KTLTGKTITLEVESSDT [RPS31] | 1.97 ± 0.034 |
| KTLVALEKQEDYIDNLV [RPC37] | 3.07 ± 0.11 |
| KTNFQDVILDYQTKKFY [REC8] | 1.24 ± 0.039 |
| KTWEKVTLDFGNIFADL [SMC2] | 3.12 ± 0.13 |
| KTYGISDDIISQVDPIT [FAS2] | 1.06 ± 0.13 |
| KVAKRTKIKPFIKVVNY [RPL27A] | 2.64 ± 0.076 |
| KVGYTLPSHIISTSDVT [RPL4A] | 2.5 ± 0.035 |
| KVPDSTYDMVGGLTKQI [RPT6] | 2.57 ± 0.077 |
| KVQDAIEEEIFDDSSRI [LIN1] | 3.06 ± 0.069 |
| KVQISKIPILAQHESFL [RPN9] | 2.41 ± 0.037 |
| KVTKIWSKESNYDCKVI [PRP28] | 2.97 ± 0.058 |
| KVTLNKETQQYELEFDT [BRR2] | 3.19 ± 0.038 |
| KVVEFAITHMIDALGTE [SCL1] | 2.18 ± 0.023 |
| KVVKAIRIYFTEKDDNK [NUT1] | 2.97 ± 0.056 |
| KWPEYVRLQRQKKILSI [RPL8B] | 1.17 ± 0.039 |
| KYKLISRIVEIFALCIY [YML103C/NUP188] | 1.85 ± 0.059 |
| KYLLTQRVFKPVDITMM [PRP8] | 2.31 ± 0.1 |
| KYPARRIHTNDNDIMNL [SSN3] | 2.9 ± 0.059 |
| KYYLEESNVNDSDMLTK [NUT1] | 3.36 ± 0.086 |
| LAAERKVTSTLLEQDTS [PRE9] | 2.36 ± 0.089 |
| LADRDEFIQDSAARGLS [ECM29] | 2.01 ± 0.064 |
| LAFYQVTPEEDEEEDEE [RPL22A] | 3.38 ± 0.11 |
| LAGKRGPKSGSTMGTPT [PGD1] | 3.19 ± 0.046 |
| LAGKVGSIRVHKSGKLS [RPC53] | 1.28 ± 0.06 |
| LAIKDSKKRFAAIWTLC [RPO21] | 2.1 ± 0.036 |

| Sequence | protein stability index |
| --- | --- |
| LAKILARSIDVEKGVNP [ECM29] | 1.07 ± 0.071 |
| LALGCHFQDQKNKKIEV [POP7] | 2.29 ± 0.11 |
| LALQRGATVFVNHLLLF [DPB4] | 1.34 ± 0.039 |
| LALTTLSEPLIKIGIRV [YCG1] | 2.01 ± 0.057 |
| LANYLTSALSELSGLIS [QCR2] | 1.59 ± 0.033 |
| LAPELNQAIWKRGVKGV [RPL31A] | 1.57 ± 0.19 |
| LASSFVNGFLNLGYCND [RPN1] | 3.17 ± 0.082 |
| LATAHIYLSRFLIKASV [SSN8] | 1.07 ± 0.055 |
| LATLLGHNDWVSQVRVV [ASC1] | 1.8 ± 0.047 |
| LAYSKIVNGQTFSYVDS [YMR129W/POM152] | 1.95 ± 0.042 |
| LCDLFVNGSITDQLIQN [NUT1] | 3.44 ± 0.29 |
| LCRQGHNMLNLLIHRKG [PRP8] | 2.23 ± 0.041 |
| LCSMLQEASQVTFIFGE [MED11] | 2.56 ± 0.037 |
| LCVLWDDLQSSVIPEVD [YCG1] | 2.34 ± 0.075 |
| LDCDGGFIDASCIAVMA [RRP45] | 1.56 ± 0.04 |
| LDERFASRVALNKEKLG [IRR1] | 1.55 ± 0.087 |
| LDESSEQKNTAKEELNG [YIL149C/MLP2] | 3.22 ± 0.087 |
| LDNKGSGEDAEEELWNS [YIL149C/MLP2] | 3.22 ± 0.1 |
| LDNLTEDPNSAAFDEVE [DIS3] | 3.12 ± 0.043 |
| LDRPEYLKKREAGEVKD [RPL10] | 3.42 ± 0.084 |
| LDTFIKIDGNPDELIKA [PRE5] | 3.36 ± 0.079 |
| LEDLKDVYASKVRLNAS [PRP8] | 2.27 ± 0.04 |
| LEDLKNTKEIAVDLEHH [RRP6] | 2.7 ± 0.038 |
| LEEHKNHLDELQKKFVT [SMC1] | 2.91 ± 0.052 |
| LEEVEGSCTGKFGYILC [RPB7] | 2.21 ± 0.046 |

| Sequence | protein stability index |
| --- | --- |
| LEIALFKYRKARLEPGT [RPO31] | 2.85 ± 0.09 |
| LEILIVTKDGVRKEFYE [PRE7] | 2.92 ± 0.049 |
| LEIRNKICSSEMINEQK [RGR1] | 2.9 ± 0.12 |
| LEKTSRILNFFDKNTKT [YMR153W/NUP53] | 2.7 ± 0.052 |
| LELNLSVLHSWVQLVQI [YJL039C/NUP192] | 1.93 ± 0.09 |
| LENKENGLLNEISRLKT [SMC2] | 3.18 ± 0.13 |
| LESDFVTGASQFQRLAP [PRE2] | 2.87 ± 0.067 |
| LESDVNIALVSKLRNNI [SRP54] | 2.98 ± 0.067 |
| LFAESHDVLQKLNTLSE [YML103C/NUP188] | 3 ± 0.05 |
| LFDAAFYMKKDAVEGVS [RPO31] | 2.65 ± 0.11 |
| LFDTYHASKAIGLPRHS [RRP6] | 2.08 ± 0.071 |
| LFKKITNVNPSKNFNVI [YML103C/NUP188] | 2.39 ± 0.036 |
| LFLNNFVSRIPIMFQDF [IRR1] | 1.85 ± 0.033 |
| LFMKSLIENCKKRNMPL [SWI1] | 2.82 ± 0.042 |
| LFNNHLNGILADEMGLG [SNF2] | 2.59 ± 0.092 |
| LFQDGSASLHTRSLKYG [RRP4] | 2.88 ± 0.059 |
| LFQNVPEQGEEPMKQLN [YAR002W/NUP60] | 3.17 ± 0.12 |
| LFWKVKEEEGSFNNVIG [PRE2] | 3.2 ± 0.11 |
| LGCTLVTLLANVRALYM [RMP1] | 2.06 ± 0.073 |
| LGHPDNYIPGNPLVTPA [COB] | 2.93 ± 0.068 |
| LGITGLATDVTTLNEMF [PUP3] | 2.27 ± 0.11 |
| LGLCLVIQIVTGIFMAM [COB] | 1.42 ± 0.045 |
| LGLKLACLGNDGILRLY [YGL100W/SEH1] | 1.72 ± 0.034 |
| LGLLTPEVVELCQKSPV [FAS2] | 2.93 ± 0.081 |
| LGLYVGVDDQILATNSL [YJL039C/NUP192] | 1.73 ± 0.16 |

| Sequence | protein stability index |
| --- | --- |
| LGTIESAQAETEALLLE [DIS3] | 2.82 ± 0.062 |
| LGVASFHGTSTKANDKN [FAS2] | 3.02 ± 0.069 |
| LGYKAKQGFVIYRVRVR [RPL15A] | 1.84 ± 0.11 |
| LGYKDTSVIQDLSEKIL [BRR2] | 2.89 ± 0.065 |
| LHGLTPTAKDVEVIKQL [GAL11] | 2.26 ± 0.078 |
| LHKLQRMRLRALETENM [GRR1] | 1.38 ± 0.032 |
| LHQHVVLKCLKSLESQR [RPC34] | 2.53 ± 0.11 |
| LHQRTHKQVYPLRMETI [DSN1] | 2.6 ± 0.039 |
| LHVVITLLREVVFTRLV [CSN12] | 1.37 ± 0.083 |
| LIDSLPGVDVSAEEQLR [SRB7] | 1.84 ± 0.043 |
| LIEFQPSQGVHYKVPTD [MED6] | 2.93 ± 0.046 |
| LIGCIPYSKNAVEQLAG [YDL088C/ASM4] | 2.92 ± 0.27 |
| LIIDEIHLLHDDRGPVL [BRR2] | 2.88 ± 0.099 |
| LIIDGFKSYATRTVITD [SMC2] | 3.12 ± 0.083 |
| LIKAKNFLVFQGDVEQI [SMC1] | 2.76 ± 0.23 |
| LIKFVDLSRNGRNGSNG [NUT1] | 3.2 ± 0.069 |
| LILAGQVKVKGQLGEMA [YCS4] | 2.87 ± 0.072 |
| LILIPGETMWVPIKSSK [RPN13] | 1.81 ± 0.055 |
| LIPTIFRYITTWENEFL [PRP8] | 2.21 ± 0.034 |
| LIQEHDSRKNREQSSND [BRN1] | 3.45 ± 0.094 |
| LIQSTEFPSITSSVILG [YOR098C/NUP1] | 3.17 ± 0.079 |
| LIRRLVRVGVLSEDKKK [RPS9A] | 1.12 ± 0.18 |
| LISNLLFSKNRNEVLES [YCS4] | 2.65 ± 0.056 |
| LITKANKVSYYGNPTSK [RTT102] | 2.2 ± 0.045 |
